In the data set the test system is HTRA1-inhibiting peptides (Example 3-2 and 3-3, members not named).

Sequence of Human plasma kallikrein (chain, as listed by the source): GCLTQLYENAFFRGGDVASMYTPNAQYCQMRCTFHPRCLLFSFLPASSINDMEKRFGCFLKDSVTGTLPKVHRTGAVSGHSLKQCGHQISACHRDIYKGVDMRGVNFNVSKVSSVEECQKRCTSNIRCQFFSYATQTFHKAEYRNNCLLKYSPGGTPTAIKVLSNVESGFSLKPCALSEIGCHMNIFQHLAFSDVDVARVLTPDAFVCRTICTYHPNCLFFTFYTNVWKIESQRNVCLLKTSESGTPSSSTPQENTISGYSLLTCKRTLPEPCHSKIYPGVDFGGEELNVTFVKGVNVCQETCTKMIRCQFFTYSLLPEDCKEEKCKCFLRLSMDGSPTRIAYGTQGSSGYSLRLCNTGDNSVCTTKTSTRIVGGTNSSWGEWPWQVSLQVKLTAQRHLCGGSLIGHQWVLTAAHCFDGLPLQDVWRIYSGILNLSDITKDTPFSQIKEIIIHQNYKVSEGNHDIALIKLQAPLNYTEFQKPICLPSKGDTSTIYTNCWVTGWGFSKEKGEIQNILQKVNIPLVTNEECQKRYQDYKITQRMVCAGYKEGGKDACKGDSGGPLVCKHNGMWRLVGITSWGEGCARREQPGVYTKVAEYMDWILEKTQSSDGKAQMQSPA

Consider Bovine α-chymotrypsin, for which the “protease activity (decomposition of a peptide substrate)” value is listed as “did not suppress the protease activity of any of the proteases at a final inhibitor concentration of 1 micro M”. With Human plasma kallikrein the entry was “did not suppress the protease activity of any of the proteases at a final inhibitor concentration of 1 micro M”. Next, Human protein C: “did not suppress the protease activity of any of the proteases at a final inhibitor concentration of 1 micro M”; Human thrombin: “did not suppress the protease activity of any of the proteases at a final inhibitor concentration of 1 micro M”; Human tryptase: “did not suppress the protease activity of any of the proteases at a final inhibitor concentration of 1 micro M”. With Human uPA the entry was “did not suppress the protease activity of any of the proteases at a final inhibitor concentration of 1 micro M”.

(Values after patent US20200377573.)
